Assay results reported in IntAct's records for PubMed 29892012.

B1: Ribosome production factor 1 (Homo sapiens), Q9H9Y2 (parent)
chain: MAKAGDKSSSSGKKSLKRKAAAEELQEAAGAGDGATENGVQPPKAAAFPPGFSISEIKNKQRRHLMFTRWKQQQRKEKLAAKKKLKKEREALGDKAPPKPVPKTIDNQRVYDETTVDPNDEEVAYDEATDEFASYFNKQTSPKILITTSDRPHGRTVRLCEQLSTVIPNSHVYYRRGLALKKIIPQCIARDFTDLIVINEDRKTPNGLILSHLPNGPTAHFKMSSVRLRKEIKRRGKDPTEHIPEIILNNFTTRLGHSIGRMFASLFPHNPQFIGRQVATFHNQRDYIFFRFHRYIFRSEKKVGIQELGPRFTLKLRSLQKGTFDSKYGEYEWVHKPREMDTSRRKFHL
partner: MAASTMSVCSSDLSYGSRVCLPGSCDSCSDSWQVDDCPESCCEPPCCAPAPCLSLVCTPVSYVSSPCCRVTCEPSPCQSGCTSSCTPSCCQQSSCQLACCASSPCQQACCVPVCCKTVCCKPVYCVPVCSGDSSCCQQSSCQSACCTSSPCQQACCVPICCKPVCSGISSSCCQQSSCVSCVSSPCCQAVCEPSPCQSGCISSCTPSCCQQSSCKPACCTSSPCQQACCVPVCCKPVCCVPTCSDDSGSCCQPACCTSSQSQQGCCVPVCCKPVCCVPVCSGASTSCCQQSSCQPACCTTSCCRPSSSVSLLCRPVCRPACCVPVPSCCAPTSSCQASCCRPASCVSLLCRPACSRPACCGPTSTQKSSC
B2: Angio-associated migratory cell protein (Homo sapiens), Q13685 (parent)
chain: MESESESGAAADTPPLETLSFHGDEEIIEVVELDPGPPDPDDLAQEMEDVDFEEEEEEEGNEEGWVLEPQEGVVGSMEGPDDSEVTFALHSASVFCVSLDPKTNTLAVTGGEDDKAFVWRLSDGELLFECAGHKDSVTCAGFSHDSTLVATGDMSGLLKVWQVDTKEEVWSFEAGDLEWMEWHPRAPVLLAGTADGNTWMWKVPNGDCKTFQGPNCPATCGRVLPDGKRAVVGYEDGTIRIWDLKQGSPIHVLKGTEGHQGPLTCVAANQDGSLILTGSVDCQAKLVSATTGKVVGVFRPETVASQPSLGEGEESESNSVESLGFCSVMPLAAVGYLDGTLAIYDLATQTLRHQCQHQSGIVQLLWEAGTAVVYTCSLDGIVRLWDARTGRLLTDYRGHTAEILDFALSKDASLVVTTSGDHKAKVFCVQRPDR
partner: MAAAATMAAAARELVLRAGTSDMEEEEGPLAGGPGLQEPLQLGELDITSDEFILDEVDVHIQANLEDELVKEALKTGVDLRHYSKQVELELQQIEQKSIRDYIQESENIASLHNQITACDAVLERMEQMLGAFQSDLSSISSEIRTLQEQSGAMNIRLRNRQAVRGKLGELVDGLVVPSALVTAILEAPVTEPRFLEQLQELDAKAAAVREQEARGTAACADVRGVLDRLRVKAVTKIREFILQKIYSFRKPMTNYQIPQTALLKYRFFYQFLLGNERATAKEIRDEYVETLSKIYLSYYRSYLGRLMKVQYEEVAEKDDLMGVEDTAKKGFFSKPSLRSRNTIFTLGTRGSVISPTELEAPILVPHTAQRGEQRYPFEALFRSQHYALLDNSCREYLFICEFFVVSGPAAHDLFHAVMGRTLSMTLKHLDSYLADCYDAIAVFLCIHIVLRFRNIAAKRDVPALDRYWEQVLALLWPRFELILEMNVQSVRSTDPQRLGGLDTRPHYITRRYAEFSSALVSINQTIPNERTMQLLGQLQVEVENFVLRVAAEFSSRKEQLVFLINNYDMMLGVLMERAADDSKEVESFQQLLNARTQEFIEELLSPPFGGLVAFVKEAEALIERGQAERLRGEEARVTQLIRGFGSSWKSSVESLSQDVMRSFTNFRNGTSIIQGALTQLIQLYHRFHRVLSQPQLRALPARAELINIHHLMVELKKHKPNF
B3: Abl interactor 2 (Homo sapiens), Q9NYB9 (parent)
chain: MAELQMLLEEEIPGGRRALFDSYTNLERVADYCENNYIQSADKQRALEETKAYTTQSLASVAYLINTLANNVLQMLDIQASQLRRMESSINHISQTVDIHKEKVARREIGILTTNKNTSRTHKIIAPANLERPVRYIRKPIDYTILDDIGHGVKWLLRFKVSTQNMKMGGLPRTTPPTQKPPSPPMSGKGTLGRHSPYRTLEPVRPPVVPNDYVPSPTRNMAPSQQSPVRTASVNQRNRTYSSSGSSGGSHPSSRSSSRENSGSGSVGVPIAVPTPSPPSVFPAPAGSAGTPPLPATSASAPAPLVPATVPSSTAPNAAAGGAPNLADGFTSPTPPVVSSTPPTGHPVQFYSMNRPASRHTPPTIGGSLPYRRPPSITSQTSLQNQMNGGPFYSQNPVSDTPPPPPPVEEPVFDESPPPPPPPEDYEEEEAAVVEYSDPYAEEDPPWAPRSYLEKVVAIYDYTKDKEDELSFQEGAIIYVIKKNDDGWYEGVMNGVTGLFPGNYVESIMHYSE
partner: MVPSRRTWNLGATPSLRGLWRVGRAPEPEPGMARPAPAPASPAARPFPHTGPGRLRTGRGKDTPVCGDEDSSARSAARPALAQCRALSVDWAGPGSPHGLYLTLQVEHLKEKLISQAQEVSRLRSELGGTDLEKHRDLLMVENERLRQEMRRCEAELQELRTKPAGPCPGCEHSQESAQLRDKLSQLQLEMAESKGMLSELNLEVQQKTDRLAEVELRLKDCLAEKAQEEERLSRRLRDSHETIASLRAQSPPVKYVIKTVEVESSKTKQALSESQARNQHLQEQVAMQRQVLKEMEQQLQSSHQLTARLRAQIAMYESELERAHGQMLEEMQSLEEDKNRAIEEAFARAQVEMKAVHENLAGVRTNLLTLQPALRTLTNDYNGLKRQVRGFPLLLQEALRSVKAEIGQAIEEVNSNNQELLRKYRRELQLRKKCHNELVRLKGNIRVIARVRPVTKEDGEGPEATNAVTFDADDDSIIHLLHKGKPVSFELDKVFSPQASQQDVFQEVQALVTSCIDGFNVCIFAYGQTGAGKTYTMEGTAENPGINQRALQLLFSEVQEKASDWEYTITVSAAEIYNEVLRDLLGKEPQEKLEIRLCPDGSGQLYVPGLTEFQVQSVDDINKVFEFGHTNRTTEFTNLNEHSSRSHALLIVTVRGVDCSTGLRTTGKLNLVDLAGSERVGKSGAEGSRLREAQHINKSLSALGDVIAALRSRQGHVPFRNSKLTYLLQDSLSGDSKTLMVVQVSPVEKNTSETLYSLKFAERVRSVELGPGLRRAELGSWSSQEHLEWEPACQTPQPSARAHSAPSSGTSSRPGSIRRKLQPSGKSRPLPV
B4: Late cornified envelope protein 1B (Homo sapiens), Q5T7P3 (parent)
chain: MSCQQNQQQCQPPPKCIPKCPPKCLTPRCPPKCPPKCPPVSSCCSVSSGGCCGSSSGGSCGSSSGGCCSSGGGGCCLSHHRRRRSHCHRPQSSGCCSQPSGGSSCCGGGSGQHSGGCC
partner: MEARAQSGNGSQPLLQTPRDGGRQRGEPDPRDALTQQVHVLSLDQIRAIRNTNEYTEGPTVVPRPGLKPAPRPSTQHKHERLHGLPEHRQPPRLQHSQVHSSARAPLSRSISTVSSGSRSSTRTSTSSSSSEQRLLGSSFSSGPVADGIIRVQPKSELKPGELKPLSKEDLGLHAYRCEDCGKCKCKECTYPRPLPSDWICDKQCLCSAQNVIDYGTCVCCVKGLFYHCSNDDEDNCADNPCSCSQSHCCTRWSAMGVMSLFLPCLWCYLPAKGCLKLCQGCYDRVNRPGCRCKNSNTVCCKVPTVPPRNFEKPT
B5: Late cornified envelope protein 1B (Homo sapiens), Q5T7P3 (parent)
chain: B4 chain
partner: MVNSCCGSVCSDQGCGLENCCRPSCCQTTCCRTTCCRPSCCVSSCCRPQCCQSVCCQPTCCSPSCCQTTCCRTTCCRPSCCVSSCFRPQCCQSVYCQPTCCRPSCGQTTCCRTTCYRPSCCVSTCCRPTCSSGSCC

Variants of: B1
Settings: with kr107_human KRTAP10-7, P60409

| effect of a mutation on the interaction | Variant |
| --- | --- |
| with no effect | MAKAGDKSSSSGKKSLKRKAAAEELQEAAGAGDGATENGVQPPKAAAFTPGFSISEIKNKQRRHLMFTRWKQQQRKEKLAAKKKLKKEREALGDKAPPKPVPKTIDNQRVYDETTVDPNDEEVAYDEATDEFASYFNKQTSPKILITTSDRPHGRTVRLCEQLSTVIPNSHVYYRRGLALKKIIPQCIARDFTDLIVINEDRKTPNGLILSHLPNGPTAHFKMSSVRLRKEIKRRGKDPTEHIPEIILNNFTTRLGHSIGRMFASLFPHNPQFIGRQVATFHNQRDYIFFRFHRYIFRSEKKVGIQELGPRFTLKLRSLQKGTFDSKYGEYEWVHKPREMDTSRRKFHL [P49T] |

Variants of: B2
Settings: with vps52_human VPS52, Q8N1B4

| effect of a mutation on the interaction | Variant |
| --- | --- |
| with no effect | MESESESGAAADTPPLETLSFHGDEEIIEVVELDPGPPDPDDLAQEMEDVDFEEEEEEEGNEEGWVLEPQEGVVGSMEGPDDSEVTFALHSASVFCVSLDPKTNTLAVTGGEDDKAFVWRLSDGELLFECAGHKDSVTCAGFSHDSTLVATGDMSGLLKVWQVDTKEEVWSFEAGDLEWMEWHPRAPVLLAGTADGNTWMWKVPNGDCKTFQGPNCPATCGRVLPDGKRAVVGYEDGTIRIWDLKQGSPIHVLKGTEGHQGPLTCVAANQDGSLILTGSVDCQAKLVSATTGKVVGVFRPETVASQPSLGEGEESESNSVESLGFCSVMPLAAVGYLDGTLAFYDLATQTLRHQCQHQSGIVQLLWEAGTAVVYTCSLDGIVRLWDARTGRLLTDYRGHTAEILDFALSKDASLVVTTSGDHKAKVFCVQRPDR [I343F] |

Variants of: B3
Settings: with kifc3_human KIFC3, Q9BVG8

| effect of a mutation on the interaction | Variant |
| --- | --- |
| disrupting interaction strength | R373C |

Variants of: B3
Settings: with kifc3_human KIFC3, Q9BVG8
Remark: another data set of the same source

| effect of a mutation on the interaction | Variant |
| --- | --- |
| with no effect | E202K |

Variants of: B4
Settings: with spy2_human SPRY2, O43597

| effect of a mutation on the interaction | Variant |
| --- | --- |
| with no effect | MSCQQNQQQCQPPPKYIPKCPPKCLTPRCPPKCPPKCPPVSSCCSVSSGGCCGSSSGGSCGSSSGGCCSSGGGGCCLSHHRRRRSHCHRPQSSGCCSQPSGGSSCCGGGSGQHSGGCC [C16Y] |

Variants of: B5
Settings: with kra42_human KRTAP4-2, Q9BYR5

| effect of a mutation on the interaction | Variant |
| --- | --- |
| with no effect | MSCQQNQQQCQPPPKYIPKCPPKCLTPRCPPKCPPKCPPVSSCCSVSSGGCCGSSSGGSCGSSSGGCCSSGGGGCCLSHHRRRRSHCHRPQSSGCCSQPSGGSSCCGGGSGQHSGGCC [C16Y] |
